{"source": "paper PMC5062252", "about": "“High-resolution crystal structure of the therapeutic antibody pembrolizumab bound to the human PD-1” (Scientific Reports, 2016)", "binders": {"B1": {"name": "Fv fragment of pembrolizumab (PemFv) (other)", "VL": "EIVLTQSPATLSLSPGERATLSCRASKGVSTSGYSYLHWYQQKPGQAPRLLIYLASYLESGVPARFSGSGSGTDFTLTISSLEPEDFAVYYCQHSRDLPLTFGGGTKVEIKTSENLYFQ", "VH": "QVQLVQSGVEVKKPGASVKVSCKASGYTFTNYYMYWVRQAPGQGLEWMGGINPSNGGTNFNEKFKNRVTLTTDSSTTTAYMELKSLQFDDTAVYYCARRDYRFDMGFDYWGQGTTVTVSS", "notes": "pembrolizumab light chain variable region (PemVL); additional C-terminal residues retained after TEV cleavage; pembrolizumab heavy chain variable region (PemVH); Fv fragment: VL and VH as two separate chains, not linked; also called pembrolizumab Fv; Keytruda; not shown: His6, C-terminal, cleaved; copies: 1 + 1"}}, "target": "T1, extracellular domain of human PD-1 (PD-1ECD), residues 32-160, C93S (human, C93S (stands in the printed letters))", "T1 construct": "additional N-terminal residues retained after restriction site cloning; additional C-terminal residues retained after cloning and TEV cleavage; also called programmed cell death-1; CD279; not shown: His6, C-terminal, cleaved", "T1 chain": "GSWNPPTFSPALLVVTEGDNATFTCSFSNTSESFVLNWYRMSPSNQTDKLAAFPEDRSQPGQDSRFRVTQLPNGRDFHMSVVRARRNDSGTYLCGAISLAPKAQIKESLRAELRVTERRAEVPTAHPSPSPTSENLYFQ", "assay": "SEC; analytical gel filtration of the PemFv/PD-1ECD complex; data not shown", "conditions": "both partners purified"}
{"binder": "B1", "values": [{"measurement": "stoichiometry N", "value": 1}]}
